Data on 23 molecules can be found in paper PMC8299219 (Cell, 2021).

Residue numbers refer to the chain shown, from its start.

To fix the notation:
B1: C53F12 (antibody, V domains shown)
VH: QVQLVQSGAEVKKPGSSVKVSCKASGGTFSSYAISWVRQAPGQGLEWMGGIIPIFGTANYAQKFQGRVTITADESTSTAYMELSSLRSEDTAVYYCARMYYYVSGSYHYFDYWGQGTLVTVSS
VL: EIVLTQSPATLSLSPGERATLSCRASQSVSSYLAWYQQKPGQAPRLLIYDASNRATGIPARFSGSGSGTDFTLTISSLEPEDFAVYYCQQRSNWPPALTFGGGTKVEIK
B2: C102B1 (antibody, V domains shown)
VH: QVQLVQSGAEVKKPGSSVKVSCKASGGTFSSYAISWVRQAPGQGLEWMGGIIPIFGTANYAQKFQGRVTITADESTSTAYMELSSLRSEDTAVYCCARDRGYCTGGVCSNYYYGIDVWGQGTTVTVSS
VL: B1 VL with A97S, L98Y, G102Q, V106L
B3: C15C9 (antibody, V domains shown)
VH: QVQLQQWGTGLLKPSETLSLTCAVYGGSFSGYYWTWIRQPPGKGLEWIGEINHSGTTTYNPSLKSRVTISVEKSENQFSLKLNSVTAADTAVYYCARGSRCSSASCLFYYFYYIDVWGKGTTVTVSS
VL: not shown
B4: C15C7 (antibody, V domains shown)
VH: QVQLVESGGGVVQPGRSLRLSCAASGFTFSSYGMHWVRQAPGKGLEWVAVISYDGSNKYYADSVKGRFTISRDNSKNTLYLQMNSLRAEDTAVYYCAKDAYYYDSSGYYPRDYYYYYYYMDVWGKGTTVTVSS
VL: not shown
B5: C83B7 (antibody, V domains shown)
VH: QVQLVQSGAEVKKPGASVKVSCKASGYTFTSYYLHWVRQAPGQGLEWMGIINPSGGSTSYAQKFQGRVTMTRDTSTSTVYMELRSLRSEDTAVYYCARDSAPRDYDFWSGYYFGVNGKGSSMDVWGQGTTVTVSS
VL: QSALTQPPSASGSPGQSVTISCTGTSSDVGGYNYVSWYQQHPGKAPKLMIYEVSKRPSGVPDRFSGSKSGNTASLTVSGLQAEDEADYYCSSYAGSNNYVFGTGTKVTVL
B6: C93D10 (antibody, V domains shown)
VH: QVQLVQSGAEVKKPGASVKVSCKASGYTFTSYYMHWVRQAPGQGLEWMGIINPSGGSTSYAQKFQGRVTMTRDTSTSTVYMELSSLRSEDTAVYYCARDPSSDYDFWSGWGNQYYYYGMDVWGQGTTVTVSS
VL: DIQLTQSPSFLSASVGDRVTITCRASQGISSYLAWYQQKPGKAPKLLIYAASTLQSGVPSRFSGSGSGTEFTLTISSLQPEDFATYYCQQLNSYPFTFGPGTKVDIK
B7: C53E12 (antibody, V domains shown)
VH: QVQLVESGGGVVQPGRSLRLSCAASGFTFSSYGMHWVRQAPGKGLEWVAVISYDGSNKYYVDSVKGRFTISRDNSKNTLYLQMNSLRAEDTAVYYCAKGTEIVVVPADYFDYWGQGTLVTVSS
VL: EIVLTQSPATLSLSPGERATLSCRASQSVSSYLAWYQQKPGQAPRLVIYDASNRATGIPARFSGSGSGTDFTLTISSLEPEDFAVYYCQQRSNWPGFTFGPGTKVDIK
B8: C89A5 (antibody, V domains shown)
VH: QVQLVESGGGVVQPGRSLRLPCAASGFSFSGYAMHWVRQAPDKGLEWMAVISFDGSTKTYADSVRGRFTISRDNSKNTLYLQIHTLRTEDTAVYYCARGGGGGDGAFDNWGGGTMVTVSS
VL: DVVMTQSPLSLPVTLGQPASISCRSSQSLVYSDGNTYLIWFQQRPGQSPRRLIYKVSNRDSGVPDRFSGSGSGTDFTLKISRVEADDVGVYYCMQTTHWPYTFGQGTKLEIK
B9: C18C8 (antibody, V domains shown)
VH: EVQLVESGGGLVQPGRSLRLSCTTSGFTFGDYAMSWVRQAPGKGLEWVGFIRSKAYGGTTEYAASVKGRFTISRDDSKSIAYLQMNSLKTEDTAVYCCTRGLKVEPYYFDYWGQGTLVTVSS
VL: not shown
B10: C15E7 (antibody, V domains shown)
VH: QVQLQQWGAGLLKPSETLSRTCAVYGGSFSGYYWTWIRQPPGMALEWIGDINHGGVTNYNPSLKSRVTISVDTSKNQFSLRLTSVTAADTAVYYCARRLLGDPRPASSSLSLRRVSYMDVWDKGTTVTVSS
VL: DIQMTQSPSSMPASVGDRVTITCRASQSISNYLNWYQQEPGRAPKLLIYGASSLQSGVPSRFGGSGSGTEFTLTITALQPEDSATYYCQQIHGAPPITFGQGTRLEIK
B11: C12B8 (antibody, V domains shown)
VH: QVQLVESGGGVVQPGRSLGLSCAASGFTFSSYAMHWVRQAPGKGLEWVAVISYDGSNKADSVKGRFTISRDNSNNTLYLQMNSLRAEDTAVYYCAREGVVVTAPLDYWGQGTLVTVSS
VL: not shown
B12: G32A3 (antibody, V domains shown)
VH: QVQLVQSGAEVKRPGASVKVSCKASGYTFTSYGITWVRQAPGQGLEWMGWISAYNGNTNYAQKLQGRVTMTTDSSTSTAYMELRSLRSDDTAVYYCARTPNSVITMIVVVTQTLDYWGQGTLVTVSS
VL: QSALTQPASVSGSPGQSITISCTGTSSDVGGYNYVSWYQQHPGKAPKLMIYEVSNRPSGVSNRFSGSKSGNTASLTISGLQAEDEADYYCSSYTSSSTRVFGGGTKLTVL
B13: C83A4 (antibody, V domains shown)
VH: QVQLQESGPGLVKPSQTLSLTCTVSGGSISSGGYYWSWIRQHPGKGLEWIGYIYYSGSTYYNPSLKSRVTISVDTSKNQFSLKLTSVTAADTAVYYCASEPTFRQSSISWYHYGMDVWGQGTTVTVSS
VL: B12 VL with G31R, E52D, R99L, G103T, L107V
B14: C12E6 (antibody, V domains shown)
VH: QVQLQESGSGLVKPSQTLSLTCAVSGGSISSGGYSWSWIRQPPGKGLEWIGYIYHSGSTYYNPSLKSRVTISVDRSKNQFSLKLSSVTAADTAVYYCARSGFLEWLRRVDAFDIWGQGTMVTVSS
VL: B12 VL with E52D, G66A
B15: C107A1 (antibody, V domains shown)
VH: QVQLVESGGGVVQPGRSLRLSCAASGFTFSSYGMHWVRQAPGKGLEWVAVISYDGSNKYYADSVKGRFTISRDNSKNTLYLQMNSLRAEDTAMYYCAKDGSGSYSWFDPWGQGTLVTVSS
VL: EIVMTQSPATLSVSPGERATLSCRASQSVSSNLAWYQQKPGQAPRLLIYGASTRATGIPARFGGSGSGTEFTLTISSLQSEDFAVYYCQQYNNGFTFGPGTKVDIK
B16: G32Q6 (antibody, V domains shown)
VH: EVQLLESGGGLVQPGGSLRLSCAASGFTFSNYAMNWVRQAPGKGLEWVSGISGNGVNTFYADSVKGRFTISRDNSRNTLYLQMNSLRAEDTAVYYCAKAIQTYSNYVLGADYWGQGTLVTVSS
VL: QSALTQPRSVSGSPGQSVTISCTGTNSDVGNYNFVSWYQQHPGRAPKLMIYDVSKRPSGVPDRFSGSKSDNTASLTISGLQAEDQADYYCCSYATSYTFRVVFGGGTKLTVL
B17: C163E11 (antibody, V domains shown)
VH: QVQLVESGGGVVQPGRSLRLSCAASGFTFSIYAIHWVRQAPGKGLEWVAVVSYDGSNKYYADSVRGRFTISRDNSKNTLYLQMNSLRADDTAVYYCARDSAGGYSYLFDYWGQGTLVTVSS
VL: not shown
B18: C163E6 (antibody, V domains shown)
VH: QVQLVESGGGVVQPGRSLRLSCAASGFTFNTYAVYWVRQAPGKGLEWVAVISYDGINKYYADSVKGRFTISRDNSKNTLYLQMNSLRPEDTAVYYCARVKSGSYKGCFDYWGQGTLVTVSS
VL: not shown
B19: C15C12 (antibody, V domains shown)
VH: EVQLLESGGGLVQPGGSLRLSCAASAFTFTNYDMNWVRQAPGKGLEWVSTISGSGDITYYADFVKGRFTISRDNSKNTLNLQMNSLRADDTAVYYCAKDFARRGYNGYEEKFISMFGGVIADYGMDVWGQGTTVTVSS
VL: EIVLTQSPTTLSLSPGERVTLSCRASQSISSYLAWYQQKPGQAPRLLIYRASNRATGISARFSGSGSGTDFTLTISSLEPEDFAVYYCQQRSNWPLTFGGGTKVEIK
B20: C81A10 (antibody, V domains shown)
VH: QVQLVQSGAEVKKPGSSVKVSCKASGGTFRSYAISWVRQAPGQGLEGMGGIIPIFGTTNYAQKFQGRVTITADESTSTAYMELSSLRSEDTAVYYCARSEWGDGYNQYYFDQWGQGALVTVSS
VL: DIQMTQSPSSLSAFVGDRVTITCRASQSISRYLNWYQQKPGKAPKVLIYAASSLQSGVPSRFSGSGSGTDFTLTISSLQPEDFATYYCQQSYSTLTFGGGTKVEIK
B21: C83A5 (antibody, V domains shown)
VH: QVQLVESGGGVVQPGRSLRLSCAASRFTFSSYGMHWVRQAPGKGLEWVAVIWFDGTNKYYADSVKGRFTISRDNSKNTLYLQMNSLRVEDTAVYYCARDGAYYDRSAYYYRLKFYFDFWGQGTLVTVSS
VL: SYELTQPPSVSVSPGQTARITCSGDALPNQYVYWYHQKPGQAPVLVIYKDSERPSGIPERFSGSSSGTTVTLTISGVQAEDEADYYCQSADSSGNIGVFGGGTKLTVL
B22: C12D2 (antibody, V domains shown)
VH: EVQLVESGGGLVQPGGSLRLSCAASGFTFSSYWMSWVRQAPGKGLEWVANIKQDGSEKYYVDSVKGRFIISRDNAKNSLYLQMNSLRAEDTAVYYCARDQRRFLEWLSYYYYMDVWGKGTTVTVSS
VL: not shown
B23: C7A2 (antibody, V domains shown)
VH: EVQLLESGGGLVQPGGSLRLSCAASGFIFSNYVVSWVRQAPGKGLEWVSGISVNGDTTFYADSVKGRFTISRDNSKNTLYLQMNSLRAEDTAVYYCAKVRGYCSGGRGCMDVWGQGTTVTVSS
VL: DIQLTQSPSSLSASVGDRVTITCQASQDIGNTLAWYQQKPGKAPNLLIYDASSLQSGVPSRFSGSVSGTDFTLTITSLQLEDFATYYCQQFNTYPALTFGGGTKVEIK

This test has as its target SARS-CoV-2 S ectodomain trimer, prefusion-stabilized, 2P variant (Wrapp et al., 2020) (SARS-CoV-2, Wuhan-Hu-1, UniProt P0DTC2, stabilised).
Take B1: the binding result was “binds”. The result for B2 reads “binds”.

As for B3, the binding result is “binds”. Take B4: the binding result was “binds”.

B5: the binding result was “binds”. Regarding B6, the binding result was “binds”. For B7, the binding result was “binds”. With B8 the entry was “binds”. With B9 the entry was “binds”; with B10, “binds”. With B11, the binding result was “binds”.

With B12, the binding result is “binds”.

With B13, the binding result is on record as “binds”. Turning to B14, the binding result is given as “binds”. With B15 the entry was “binds”. Take B16: the binding result was “binds”. For the molecule B17, the binding result is “binds”. The result for B18 reads “binds”; that for B19, “binds”; that for B20, “binds”. With B21 the entry was “binds”; with B22, “binds”; with B23, “binds”.
